Consider 1 substance from paper PMC7193532 (Acta Crystallographica. Section D, Structural Biology, 2020).

Where “and” joins values, the source holds several entries; their conditions need not be identical. Equal values may be shown once.

The target in the test is the Ala and ValAla insertions and the Met1Ala substitution and Ala insertion. Kind of test: SPR. Background: SPR reads the build-up and loss of mass on a sensor chip optically.

For rufomycin I (RUF-I) (peptide), the fold reduction in binding affinity against wild type was 13 fold and 16 fold.
